Experimental data reported in patent US20170260266A1 (GlaxoSmithKline, published 2017).
Several values for one entry are separate records, joined by “and”; a condition that tells them apart may be missing. Identical values can stand only once.

Key:
human IL-7 = biological target: T1, human IL-7 (human, UniProt P13232 26-177); test: SPR (Biacore)
T1 construct: Immobilised on a CM4 chip by primary amine coupling; also called Mature processed human IL-7
T1 sequence: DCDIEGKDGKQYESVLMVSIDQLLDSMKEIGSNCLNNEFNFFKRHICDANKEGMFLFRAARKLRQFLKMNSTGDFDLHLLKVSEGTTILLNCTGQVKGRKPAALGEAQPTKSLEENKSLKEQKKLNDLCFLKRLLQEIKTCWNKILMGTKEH

[1] = biological target: T2, full length (mature) human TSLP, recombinant (human, UniProt Q969D9 29-159, biotinylated in the SPR assay on the SA chip); test: cell-based or functional assay
[2] = biological target: T3, native human TSLP (supernatant from stimulated human lung fibroblasts) (human, UniProt Q969D9 29-159); test: cell-based or functional assay
[3] = biological target: T2, full length (mature) human TSLP, …; test: cell-based or functional assay; remark: listed apart in the source
[4] = biological target: glycosylated recombinant human TSLP expressed from HEK cells (human, UniProt Q969D9 29-159, glycosylated); test: cell-based or functional assay
[5] = biological target: T2, full length (mature) human TSLP, …; test: RBA, geometric mean (n = 2)
[6] = biological target: T2, full length (mature) human TSLP, …; test: SPR with biotinylated TSLP; mean of two experiments
[7] = biological target: T4, short form TSLP (synthetic biotinylated 63 amino acid peptide comprising residues 69-131 of mature full … (human, biotinylated (position not given))); test: ForteBio Octet, biotinylated sfTSLP on streptavidin tips
T4 construct: also called sfTSLP; sf TSLP

[8] = biological target: T2, full length (mature) human TSLP, …; test: TSLP receptor binding assay (RBA, ELISA, OD 450 nm): dAb titrated against recombinant human TSLP (1 ng/ml); blocked is the binding of TSLP to the plate-coated TSLP receptor complex
[9] = biological target: T3, native human TSLP (supernatant from …); test: TSLP receptor binding assay (RBA, ELISA, OD 450 nm): dAb titrated against native human TSLP (supernatant of stimulated human lung fibroblasts); blocked is the binding of TSLP to the plate-coated TSLP receptor complex
[10] = biological target: T2, full length (mature) human TSLP, …; test: cell-based or functional assay; remark: listed apart in the source
[11] = biological target: T2, full length (mature) human TSLP, …; test: ELISA RBA, geometric mean
[12] = biological target: T2, full length (mature) human TSLP, …; test: SPR, biotinylated TSLP on SA chip (Biacore 4000)
[13] = biological target: T2, full length (mature) human TSLP, …; test: SPR, biotinylated TSLP on SA chip; all concentrations (footnote 1)
[14] = biological target: T2, full length (mature) human TSLP, …; test: SPR, biotinylated TSLP on SA chip; value excluding 1000 nM concentration

T4 sequence (peptide, as listed by the source): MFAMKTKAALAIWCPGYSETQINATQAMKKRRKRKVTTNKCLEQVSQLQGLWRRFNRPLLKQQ

Binder | pSTAT5 assay in SW756 cells, Geometric Mean IC50 [10] | IC50 [11] | Kd [12] | further results
DOM30h-440-81/86 (other, Vk single variable domain (dAb); DOM30h-440-55 with the C-terminal R removed (-R); also called DOM30h-440-86; TSLP dAb) VL: DIQMTQSPSSLSASVGDRVTITCRASRPIRNWLDWYQQKPGKAPKLLIWGASHLQSGVPSRFSGSGSGTDFTLTISSLQPEDFATYYCVQIGEDPVTFGQGTKVEIK | – | – | – | binding result (human IL-7): no binding; IL-5 production from human PBMC stimulated with a mixture of TSLP, IL-33 and IL-25, Geometric Mean IC50 [1]: 129 nM; native TSLP-induced STAT5 phosphorylation in SW756 cells, Geometric Mean IC50 [2]: 0.86 nM; Inhibition of TSLP-induced TARC in whole blood, Geometric Mean IC50 (n = 7) [3]: 2.4 nM; Inhibition of TSLP-induced pSTAT5 in SW756 cells, Geometric Mean IC50 (n = 5) [3]: 1.92 nM; Inhibition of TSLP-induced TARC in whole blood, Geometric Mean IC50 (n = 6) [4]: 3.1 nM; Inhibition of TSLP-induced pSTAT5 in SW756 cells, Geometric Mean IC50 (n = 3) [4]: 0.55 nM; IC50 [5]: 1.94 nM; Kd [6]: 0.867 nM and 0.87 nM; koff [6]: 0.000508 s⁻¹; kon [6]: 619000 M⁻¹ s⁻¹; binding result [7]: no binding; IC50 (read off the curve) [8]: ~4 nM; IC50 (read off the curve) [9]: ~0.1 nM
DOM30h-440-65 (other) VL: DIQMTQSPSSLSASVGDRVTITCRASRPIRNWLDWYQQKPGKAPKLLIWGASHLQSGVPSRFSGSGSGTDFTLTISSLQPEDFATYYCMQIGEDPVTFGQGTKVEIKR | 0.78 nM | 0.69 nM | 3.84 nM | –
DOM30h-440-60 (other) VL: DIQMTQSPSSLSASVGDRVTITCRASRPIRNWLDWYQQKPGKAPKLLIWGASHLQSGVPSRFSGSGSGTDFTLTISSLQPEDFATYYCIQFGEDPVTFGQGTKVEIKR | 0.7 nM | 0.32 nM | 0.14 nM | –
DOM30h-440-54 (other) VL: DIQMTQSPSSLSASVGDRVTITCRASRPIRNWLDWYQQKPGKAPKLLIWGASHLQSGVPSRFSGSGSGTDFTLTISSLQPEDFATYYCWQLAFDPTTFGQGTKVEIKR | 1.52 nM | 2.15 nM | 3.82 nM | –
DOM30h-440-57 (other) VL: DIQMTQSPSSLSASVGDRVTITCRASRPIRNWLDWYQQKPGKAPELLIWGASHLQSGVPSRFSGSGSGTDFTLTISSLQPEDFATYYCMQIGDDPVTFGQGTKVEIKR | 0.56 nM | 0.34 nM | – | Kd [13]: 3.48 nM; Kd [14]: 1.5 nM
DOM30h-440-63 (other) VL: DIQMTQSPSSLSASVGDRVTITCRASRPIRNWLDWYQQKPGKAPKLLIWGASHLQSGVPSRFSGSGSGTDFTLTISSLQPEDFATYYCMQIGSDPVTFGQGTKVEIKR | 2.21 nM | 1.55 nM | 4.22 nM | –
DOM30h-440-55 (other) VL: DIQMTQSPSSLSASVGDRVTITCRASRPIRNWLDWYQQKPGKAPKLLIWGASHLQSGVPSRFSGSGSGTDFTLTISSLQPEDFATYYCVQIGEDPVTFGQGTKVEIKR | 1.1 nM | 0.87 nM | 2.78 nM | –
DOM30h-440-56 (other) VL: DIQMTQSPSSLSASVGDRVTITCRASRPIRNWLDWYQQKPGKAPKLLIWGASHLQSGVPSRFSGSGSGTDFTLTVSSLQPEDFATYYCMQIGEDPVTFGQGTKVEIKR | 0.99 nM | 0.56 nM | 2.47 nM | –
DOM30h-440-58 (other) VL: DIQMTQSPSSLSASVGDRVTITCRASRPIRNWLDWYQQKPGKAPKLLIWGASHLQSGVPSRFSGSGSGTDFTLTISSLQPEDFATYYCLQIADDPVTFGQGTKVEIKR | 1.91 nM | 1.41 nM | 2.65 nM | –
DOM30h-440-64 (other) VL: DIQMTQSPSSLSASVGDRVTITCRASRPIRNWLDWYQQKPGKAPKLLIWGASHLQSGVPSRFSGSGSGTDFTLTISSLQPEDFATYYCLQIGEDPVTFGQGTKVEIKR | 3.26 nM | 0.95 nM | 6.17 nM | –
DOM30h-440-53 (other) VL: DIQMTQSPSSLSASVGDRVTITCRASRPIRNWLDWYQQKPGKAPKLLIWGASHLQSGVPSRFSGSGSGTDFTLTISSLQPEDFATYYCLQVGEDPVTFGQGTKVEIKR | 1.92 nM | 2 nM | 3.05 nM | –
